From paper PMC3834884, “A fully caninised anti-NGF monoclonal antibody for pain relief in dogs” (BMC Veterinary Research, 2013) come the findings set out here.

Experiment [1] has as its target T1, mouse nerve growth factor (muNGF) (Mus musculus, UniProt P01139). Description: cell-based or functional assay.
Experiment [2] has as its target T1, mouse nerve growth factor (muNGF). As to the kind of experiment: SPR; ProteOn XPR36, GLM chip; muNGF amine-coupled (50 ug/mL, sodium acetate pH 4.5); NV-01 passed over at 500, 250, 125, 62.5 and 31.25 nM for 60 s; Langmuir fit. To be noted: both partners purified.
The target is the same in experiment [3]. As to the kind of experiment: ELISA; plates coated with NGF (0.1 ug/ml muNGF; canine NGF in Figure 2A), blocked with 5% BSA/PBS; CHO cell supernatants with canine anti-NGF IgG 1 h at room temperature in PBS/1% BSA; detected with rabbit anti-canine IgG-HRP. The following applies: one partner purified.
The target in experiment [4] is T2, canine nerve growth factor with a C-terminal poly-His tag (Canis lupus familiaris, UniProt A0A8I3PYI3).
T2 construct: canine beta NGF, expressed from a cDNA that encodes canine pre-pro beta NGF; the mature form is surmised; also called canine NGF; caNGF; source: HEK293 cells, transient transfection, purified from supernatant (Ni-HiTrap); not shown: poly-His, C-terminal, kept
The description is as above. The following applies: one partner purified.

T1 sequence (P01139 122-241): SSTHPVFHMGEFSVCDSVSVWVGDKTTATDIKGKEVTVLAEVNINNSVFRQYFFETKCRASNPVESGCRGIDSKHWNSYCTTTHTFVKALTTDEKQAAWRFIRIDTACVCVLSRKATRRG

B1: NV-01 (caN2-HCA1-kLC1), fully caninised anti-NGF monoclonal antibody (antibody, V domains shown)
VH: EVQLVESGGGLVQPGGSLRLSCVASGFSLTNNNVNWVRQAPGKGLEWVGGVWAGGATDYNSALKSRFTISRDNAKNTVFLQMHSLRSEDTAVYYCARDGGYSSSTLYAMDAWGQGTSVTVSS
VL: DIVMTQSPASLSLSQGETVTITCRASEDIYNALAWYQQKPGQAPKLLIYNTDTLHTGVPSRFSGSGSGTDFSLTISSLEPEDVAVYYCQHYFHYPRTFGQGTKVELK
notes: caN2 heavy chain variable domain (caninised rat alphaD11 VH, modified framework); caninised alphaD11 light chain variable domain (caN-kLC1); canine kappa light chain constant domain; Canine IgG-A, kappa; also called caninised anti-NGF mAb; copies: 2 + 2
In the case of B1, in experiment [1], the “IC50 of inhibition of NGF-induced proliferation of TF-1 cells (1 ng/ml NGF; NV-01 2.5 ng/ml to 0.002 ng/ml); blocked: NGF and its receptor on TF-1 cells” value stood at 0.02 ng/mL. This molecule also returned a Kd in experiment [2] below 1 pM.

B2: caN-HCA1 + kLC1, caninised anti-NGF antibody with canine IgG heavy chain isotype A (antibody, V domains shown)
VH: EVQLVESGGDLVNPGGTLTLSCVVSGFSLTNNNVNWVRQALGRGLEWVGGVWAGGATDYNSALKSRLTITRDTSKSTVFLKMHSLQSEDTATYYCARDGGYSSSTLYAMDAWGQGTLVTVSS
VL: DIVMTQSPASLSLSQGETVTITCRASEDIYNALAWYQQKPGQAPKLLIYNTDTLHTGVPSRFSGSGSGTDFSLTISSLEPEDVAVYYCQHYFHYPRTFGQGTKVELK
notes: caN heavy chain variable domain (first caninised alphaD11 VH); as the light chain variable domain of m1 (caN-kLC1); canine kappa light chain constant domain; Canine IgG-A, kappa; also called caN-HCA + kLC; type A anti-NGF antibody; source: CHO cells, transient transfection, supernatant; purified using Protein L
Regarding B2, in experiment [3], the binding result was “binds”.

B3: caN-HCD2 + kLC1, caninised anti-NGF antibody with canine IgG heavy chain isotype D (antibody, V domains shown)
VH: EVQLVESGGDLVNPGGTLTLSCVVSGFSLTNNNVNWVRQALGRGLEWVGGVWAGGATDYNSALKSRLTITRDTSKSTVFLKMHSLQSEDTATYYCARDGGYSSSTLYAMDAWGQGTLVTVSS
VL: DIVMTQSPASLSLSQGETVTITCRASEDIYNALAWYQQKPGQAPKLLIYNTDTLHTGVPSRFSGSGSGTDFSLTISSLEPEDVAVYYCQHYFHYPRTFGQGTKVELK
notes: caN heavy chain variable domain (first caninised alphaD11 VH); as the light chain variable domain of m1 (caN-kLC1); canine kappa light chain constant domain; Canine IgG-D, kappa; also called caN-HCD + kLC; ca-HCD2 + kLC1; source: CHO cells, transient transfection, supernatant; purified using Protein L
On to B3, for which, in experiment [3], the binding result is on record as “binds”.

B4: caN-HCC1 + kLC1, caninised anti-NGF antibody with canine IgG heavy chain isotype C (antibody, V domains shown)
VH: EVQLVESGGDLVNPGGTLTLSCVVSGFSLTNNNVNWVRQALGRGLEWVGGVWAGGATDYNSALKSRLTITRDTSKSTVFLKMHSLQSEDTATYYCARDGGYSSSTLYAMDAWGQGTLVTVSS
VL: DIVMTQSPASLSLSQGETVTITCRASEDIYNALAWYQQKPGQAPKLLIYNTDTLHTGVPSRFSGSGSGTDFSLTISSLEPEDVAVYYCQHYFHYPRTFGQGTKVELK
notes: caN heavy chain variable domain (first caninised alphaD11 VH); as the light chain variable domain of m1 (caN-kLC1); canine kappa light chain constant domain; Canine IgG-C, kappa; also called caN-HCC-kLC; type C anti-NGF antibody; source: CHO cells, transient transfection, supernatant; purified on Protein G
In the case of B4, the binding result in experiment [3] is recorded as “binds”.

B5: caN-HCB2 + kLC1, caninised anti-NGF antibody with canine IgG heavy chain isotype B (antibody, V domains shown)
VH: EVQLVESGGDLVNPGGTLTLSCVVSGFSLTNNNVNWVRQALGRGLEWVGGVWAGGATDYNSALKSRLTITRDTSKSTVFLKMHSLQSEDTATYYCARDGGYSSSTLYAMDAWGQGTLVTVSS
VL: DIVMTQSPASLSLSQGETVTITCRASEDIYNALAWYQQKPGQAPKLLIYNTDTLHTGVPSRFSGSGSGTDFSLTISSLEPEDVAVYYCQHYFHYPRTFGQGTKVELK
notes: caN heavy chain variable domain (first caninised alphaD11 VH); as the light chain variable domain of m1 (caN-kLC1); canine kappa light chain constant domain; Canine IgG-B, kappa; also called caN-HCB-kLC; type B anti-NGF antibody; source: CHO cells, transient transfection, supernatant; purified on protein A
As to B5, the binding result in experiment [4] and in experiment [3] was “binds” each time.
